The values that follow come from IntAct's records for PubMed 18046461.

Sequences and labels used below:
B1: Mitogen-activated protein kinase 8 (Rattus norvegicus (Rat)), P49185 (parent)
chain: MSRSKRDNNFYSVEIADSTFTVLKRYQNLKPIGSGAQGIVCAAYDAILERNVAIKKLSRPFQNQTHAKRAYRELVLMKCVNHKNIIGLLNVFTPQKSLEEFQDVYIVMELMDANLCQVIQMELDHERMSYLLYQMLCGIKHLHSAGIIHRDLKPSNIVVKSDCTLKILDFGLARTAGTSFMMTPYVVTRYYRAPEVILGMGYKENVDLWSVGCIMGEMVCLKILFPGRDYIDQWNKVIEQLGTPCPEFMKKLQPTVRTYVENRPKYAGYSFEKLFPDVLFPADSEHNKLKASQARDLLSKMLVIDASKRISVDEALQHPYINVWYDPSEAEAPPPKIPDKQLDEREHTIEEWKELIYKEVMDLEERTKNGVIRGQPSPLGAAVINGSQHPVSSPSVNDMSSMSTDPTLASD
partner: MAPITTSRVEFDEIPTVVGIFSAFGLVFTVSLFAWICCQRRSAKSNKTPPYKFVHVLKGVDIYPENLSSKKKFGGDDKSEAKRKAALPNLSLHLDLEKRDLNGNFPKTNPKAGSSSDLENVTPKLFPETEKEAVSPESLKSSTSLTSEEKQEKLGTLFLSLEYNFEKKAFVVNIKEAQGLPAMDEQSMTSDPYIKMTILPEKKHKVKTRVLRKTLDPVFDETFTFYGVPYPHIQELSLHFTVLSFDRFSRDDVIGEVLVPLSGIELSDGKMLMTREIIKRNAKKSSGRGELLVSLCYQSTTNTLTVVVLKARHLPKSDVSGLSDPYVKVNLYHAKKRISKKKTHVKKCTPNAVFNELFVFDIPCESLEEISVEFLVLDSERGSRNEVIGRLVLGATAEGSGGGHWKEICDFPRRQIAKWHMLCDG
B2: Mitogen-activated protein kinase 8 (Rattus norvegicus (Rat)), P49185 (parent)
chain: B1 chain

In assay [1] the parent is B1. Conditions: with syt4_rat Syt4, P50232.
Assay [2] covers variants of B1. The following applies: with syt4_rat Syt4, P50232. This is another data set of the same source.
Variants of B1 are the subject of assay [3]. Conditions: with syt4_rat Syt4, P50232. The source holds these as a separate data set.
Assay [4] covers variants of B2. The following applies: with jun_rat Jun.
Variants of B2 are the subject of assay [5]. Conditions: with jun_rat Jun. This is another data set of the same source.

In the case of E329N, the “effect of a mutation on the interaction” value with syt4_rat Syt4, P50232 [1] was “disrupting interaction”; with syt4_rat Syt4, P50232 [2], “decreasing interaction”. E331N: the “effect of a mutation on the interaction” value with syt4_rat Syt4, P50232 [1] is reported as “disrupting interaction”; with syt4_rat Syt4, P50232 [2], “decreasing interaction”.

As for D162T, the “effect of a mutation on the interaction” value with syt4_rat Syt4, P50232 [3] is given as “decreasing interaction”; with syt4_rat Syt4, P50232 [1], “disrupting interaction”. Regarding D326N, the “effect of a mutation on the interaction” value with syt4_rat Syt4, P50232 [1] is given as “disrupting interaction”; with syt4_rat Syt4, P50232 [2] it was “decreasing interaction”. Consider E331N, for which the “effect of a mutation on the interaction” value with jun_rat Jun, P17325 [4] was “disrupting interaction”; with jun_rat Jun, P17325 [5] it was “decreasing interaction”.

With D162T, in the assay with jun_rat Jun, P17325 [4], the “effect of a mutation on the interaction” value is reported as “disrupting interaction”. For D326N, the “effect of a mutation on the interaction” value with jun_rat Jun, P17325 [4] was “disrupting interaction”; in the assay with jun_rat Jun, P17325 [5], “decreasing interaction”.

In the case of E329N, the “effect of a mutation on the interaction” value is “disrupting interaction” in the assay with jun_rat Jun, P17325 [4] and “decreasing interaction” with jun_rat Jun, P17325 [5].
